These results are taken from patent US20190177382A1 (US Dept. of Health and Human Services, published 2019).

This assay concerns the target T1, KDR ectodomain-IgG fusion protein (UniProt P35968 20-764, limits assumed).
T1 construct: extracellular domain; also called KDR-Ig ectodomain; not shown: IgG portion of the fusion
The assay can be described thus: electrochemiluminescent saturation binding; VEGF captured by a non-neutralizing anti-VEGF mAb, KDR-Ig ectodomain titrated, detected with tagged anti-KDR.

T1 sequence (P35968 20-764 limits assumed): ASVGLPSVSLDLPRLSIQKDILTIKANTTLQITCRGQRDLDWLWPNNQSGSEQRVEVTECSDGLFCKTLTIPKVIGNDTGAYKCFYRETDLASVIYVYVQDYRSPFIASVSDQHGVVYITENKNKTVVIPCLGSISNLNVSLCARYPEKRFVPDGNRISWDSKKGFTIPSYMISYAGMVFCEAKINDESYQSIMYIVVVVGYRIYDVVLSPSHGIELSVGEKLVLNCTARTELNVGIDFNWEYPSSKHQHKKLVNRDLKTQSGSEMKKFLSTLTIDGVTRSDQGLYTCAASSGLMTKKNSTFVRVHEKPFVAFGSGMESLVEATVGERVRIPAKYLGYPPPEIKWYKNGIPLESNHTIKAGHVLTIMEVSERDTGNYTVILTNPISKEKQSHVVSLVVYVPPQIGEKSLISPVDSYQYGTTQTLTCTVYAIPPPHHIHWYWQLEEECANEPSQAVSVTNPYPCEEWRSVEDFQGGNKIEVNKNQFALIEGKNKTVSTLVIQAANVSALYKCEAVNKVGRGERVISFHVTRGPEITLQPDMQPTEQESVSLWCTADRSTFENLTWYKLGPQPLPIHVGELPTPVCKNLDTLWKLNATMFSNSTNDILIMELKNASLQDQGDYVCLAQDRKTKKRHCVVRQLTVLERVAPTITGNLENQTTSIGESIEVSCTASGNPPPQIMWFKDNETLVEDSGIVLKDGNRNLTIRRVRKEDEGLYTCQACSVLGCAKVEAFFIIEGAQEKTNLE

B1: VEGF165 3S (human VEGF165 R123E/R124E/R159E) (ligand)
chain: APMAEGGGQNHHEVVKFMDVYQRSYCHPIETLVDIFQEYPDEIEYIFKPSCVPLMRCGGCCNDEGLECVPTEESNITMQIMRIKPHQGQHIGEMSFLQHNKCECRPKKDRARQENPCGPCSEEEKHLFVQDPQTCKCSCKNTDSRCKARQLELNERTCECDKPRR
notes: Secreted into conditioned media by 293/KDR transfectants, made with the native signal peptide; also called VEGF 3S
In the case of B1, the Kd (commonly the free concentration of one partner at which half of the binding sites on the other are occupied at equilibrium, for simple one-to-one binding) is ~0.019 nM.
